B1: ZNF649 (parent)
chain: LTEHKRIHTGKKPHVCSLCGKAFY

Variants of: B1
Experiment: protein stability index of a GFP-peptide fusion (GPS, HEK-293T) (PSI 1-6); higher = more stable
Conditions: c terminus: a fixed tail appended
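Further: lentivirally expressed fusions sorted by FACS into six bins by GFP to DsRed ratio, PSI derived from sequencing read proportions per bin multiplied by bin number.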

Protein stability index, by site and new letter:
A22: V 2.85, W 2.48, L 2.27, H 2.46, G 2.56, T 3.41, S 2.55, Q 2.26, P 2.9, M 2.85, C 2.55, D 2.51, N 3.23, I 2.62, K 3.71, R 3.22, E 2.24, F 2.16
V15: H 2.34, L 1.89, T 2.46, N 2.05, P 2.71, M 2.98, K 2.9, R 2.32, Q 2.35, Y 2.55, I 2.69, W 1.83, S 2.23
C16: S 3.52, K 2.32, A 2.94, H 2.71, V 2.2, M 2.75, E 3.62, I 2.18, F 1.48, N 2.55, R 2.4, D 3.15, Q 1.93, Y 2.23, T 2.23, P 2.56, L 2.17, G 2.01
L18: D 2.84, I 2.23, H 3.13, C 3.2, Q 2.9, G 2.82, P 3.85, M 3.36, S 2.89, V 2.37, T 2.35, Y 2.2, R 3, A 1.97, N 5.08, K 2.66, E 3.18, W 1.7
F23: Y 2.47, V 2.32, G 2.67, M 2.56, E 3.69, T 2.32, S 2.97, A 2.77, Q 2.3, W 1.52, C 3.07, R 2.69, I 2.45, K 3.87, P 3.32, H 4.3, D 3.98, N 2.4
C19: W 1.3, E 3.09, I 1.75, M 2.46, G 2.39, Q 2.04, F 1.81, D 3.3, H 3.06, A 2.65, P 2.38, K 2.64, R 3.01, V 2.1, L 2.24, Y 2.15, S 1.92, T 2.24, N 2.89
Y24: G 3.35, D 3.12, A 2.88, L 3.01, K 3.3, C 3.33, E 2.82, I 1.81, H 3.35
S17: K 2.34, L 1.72, G 1.72, Y 2.11, N 2.58, I 2.48, M 2.83, T 1.82, R 1.94, Q 2.46, P 2.97, V 1.49, H 2.01, A 2.58, C 1.96, W 2.72, F 2.2, E 2.84
K21: Y 1.79, T 2.78, M 1.98, E 2.67, L 1.77, N 3.08, A 2.03, F 1.73, V 3.11, W 2.15, C 1.39, D 2.72, P 2.55, G 2.38, Q 3.8, I 2.11, S 2.44, H 1.91
G20: M 2.56, D 2.79, F 1.97, W 2.59, T 1.55, R 2.05, N 3.49, H 1.6, P 1.91, A 3.75, I 1.91, V 1.94, Q 3.04, Y 2.9, C 2.93, L 2.06, K 1.24, S 2.35
